Among the data in the supplement of paper PMC12042874 are amyloid nucleation score values, retold here.

± gives the uncertainty stated by the source.

The data set in a line: amyloid nucleation score (Sup35N fusion, yeast selection) (log enrichment); library NNK3; higher = more nucleation; inactive = no reads after selection. An outline of the steps:
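After 24 hours of induction with 100 μM copper sulfate, psi-negative yeast expressing peptides of 20 random codons fused to Sup35N were grown for 7 days at 30°C on medium lacking adenine and uracil. Input and output plasmid inserts were sequenced with Illumina, and sequences with under 100 input reads were discarded. Scores for nucleation are the DiMSum log enrichment of output over input reads, centred on the mode score of non-aggregating sequences.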
ADPSMVNVICHGLSDRGSY: the amyloid nucleation score result was “inactive”.

Take SFWIV: the amyloid nucleation score result was “inactive”. For FVRIYNFILLAV the value was “inactive”; for LFYFVWRVYKFILWSG, “inactive”. HPVGACCLQLRFGLYCICVA: the amyloid nucleation score was 0.023 ± 0.26. For the substance WYGITEIP, the amyloid nucleation score entry was “inactive”. Then DFGMVLSNRFKTMKDCSYFC, with 0.785 ± 0.23; and VLASWASYPTGSQSKGGERT, with “inactive”; and LEFRYPAMWLKFSLYVWTLI, with “inactive”.

On to VIVARFLFMGTTFHVPDVRP, for which the amyloid nucleation score was found to be 1.97 ± 0.075. In the case of VIHQIMIMYGVYPASMKLFF, the amyloid nucleation score worked out at 1.77 ± 0.098. Turning to MIIRGKPVIWMECLAVRTDR, the amyloid nucleation score entry was “inactive”. Take SLRNRLVVTSVDYRMHLRRG: the amyloid nucleation score result was “inactive”.

On to NLIVKSNYGAGNDMRCGDYT, for which the amyloid nucleation score result is “inactive”.

Regarding VRNRSFGTALDNELLNLRPR, the amyloid nucleation score result is “inactive”. Then GFAMVLSWLKSGFPISRDLR, with “inactive”. For FNLGRVMFLRSLRWCQGLLV the value was “inactive”. For YVFGKLSAFFFVRFNLQGLL the value was “inactive”. As for LCIGVDLKPCYGSVDRYVNL, the amyloid nucleation score entry was “inactive”.

Regarding GRVFRCTPEVFIK, the amyloid nucleation score result is “inactive”. Then IVREVGTA, with “inactive”; and NDCISHVSSCRMYDETKVCL, with “inactive”; and QWILHNFTVGARPGPVRTKE, with “inactive”. For RVITCWSQQCWHDRCLVCGK the value was “inactive”. For GVGLIE the value was “inactive”; for KCCTGERYSLIGFLHFCGEM, 0.891 ± 0.15; for KYYFRGWKTEPVTWFGCQAM, 0.488 ± 0.2. With PHTWGGR, the amyloid nucleation score result was “inactive”. In turn, RYTFVGT registered an amyloid nucleation score of -0.408 ± 0.68. Then YKGDKFVRCSVW, with “inactive”. For LIDKCGKHQTFMGC the value was “inactive”; for AYLLSIANCFSAVYLHPSDS, 0.216 ± 0.56; for KAAEDMRGFHCGARKSIRVD, “inactive”. For NNCEVNLCSLELPWKTKLMM the value was 0.264 ± 0.85. GMERFNGFKRVFMDSGCLHR registered an amyloid nucleation score of -0.707 ± 0.96. Then AVVLFLGTLQLGCLGLIVQL, with -0.424 ± 0.75. For HGKKRNGRSPYINGFYLCYW the value was “inactive”; for FFLYLSKRLCVFCRCTYLGL, “inactive”. With DSSLIAGPHVVCSWGLKNFS, the amyloid nucleation score result was “inactive”.

With WKLGLK, the amyloid nucleation score entry was “inactive”. For YSVLLLLDSYGAWSGAGGE the value was “inactive”; for TRRPAQFVGPI, 0.645 ± 0.16.

With ETSVTAHHLGIGVLLRFQQ, the amyloid nucleation score result is “inactive”. For FSIFSVFEPWMISKFCP the value was “inactive”; for IYGHCCIISAWVWGNESLVL, “inactive”; for TSTSIVSYGTWFSGFVLNVS, 2.29 ± 0.076. Regarding ISVGVLSVCCGIC, the amyloid nucleation score was determined as 2.57 ± 0.078. Then ASAYGSSLYSRFTVEYNSII, with 0.223 ± 0.38. Then LHGNYVGQLLDLEIPVRGWI, with “inactive”; and RDFRKSIYTCLEYYWHMVVT, with “inactive”; and GACYTFAA, with “inactive”. Then LLVQLLLCKLKSMRLCCTVF, with “inactive”; and QGNWHYWCKDVRKLSLPKEL, with “inactive”; and LYRSMH, with “inactive”. Regarding SAGDTDRRPVFH, the amyloid nucleation score was -0.058 ± 1. Then PRKTFVKCNRRLNSW, with “inactive”. Then IVVCFRSRRFCSSRYHS, with “inactive”; and VTHGSVCFTTIYRTIWRFNR, with “inactive”. For FDYSIGL the value was “inactive”. Consider WLVPR, for which the amyloid nucleation score entry was “inactive”.

In turn, DPSCGECFKA gave an amyloid nucleation score of 0.961 ± 0.1. Then MCKGR, with “inactive”; and CAVYFLR, with “inactive”.

For the substance SRMDNSDTIYNILLWTSSYS, the amyloid nucleation score entry was “inactive”.

For the substance RELVNSNALGNFLWETVCFS, the amyloid nucleation score result is “inactive”. For GDSSVTWI the value was “inactive”; for PRDGERFLG, “inactive”. Then RLYLVGYRLIRCRFGILGAC, with “inactive”.

In the case of GLRNYRDGVKIASAVSVGAS, the amyloid nucleation score result is “inactive”. Then VGVFV, with “inactive”; and RKGFKAIGY, with “inactive”. Then CYRWL, with “inactive”; and IEVIYGV, with “inactive”; and VQLIWDFYSCSN, with “inactive”.

With FSVGEFCR, the amyloid nucleation score entry is “inactive”.

In the case of GILLRFNKGA, the amyloid nucleation score result was “inactive”. For SVSFFAF the value was “inactive”; for LLVLVV, “inactive”; for TKSRIWG, “inactive”. For QEWVRYYYFVLYFNYVNGSW the value was “inactive”. Then NCIYLVLN, with “inactive”; and VDSLFSGKNYELECKFDSWI, with “inactive”; and LLPLDSHYISSPFY, with “inactive”.

In the case of MMLYALDRVAVTLGKSMLPA, the amyloid nucleation score entry is “inactive”. For PVLARYL the value was “inactive”; for IFIGVGNVGEVLVIYSWQRN, 0.035 ± 0.48; for SGVMNWKT, “inactive”.

HHGWVVYNWVDKVINSHIVG: the amyloid nucleation score turned out to be 0.478 ± 0.28. For RTLFYFLDDSQFVLV the value was “inactive”; for GPNRYW, “inactive”. For FDLVNWYFQRNIVLRQSCCY the value was “inactive”.

Consider IVLWVFVLTITLN, for which the amyloid nucleation score entry is “inactive”.

As for ANGLWKRIAFEGTARCEGMG, the amyloid nucleation score result is “inactive”. Then LISTWNMAYSLSLIMMDHHS, with “inactive”; and MAEWENRLARYSGICGSSLP, with “inactive”. For CNSVRLGFQWAKYVLWRHRG the value was “inactive”; for IIPTD, “inactive”. On to TRILGYIFGAVSIVWLGVER, for which the amyloid nucleation score result was “inactive”. For GMAETRWGLRKIWKVAGARI the value was -0.85 ± 1.9; for NLVLCN, “inactive”; for RVNNGT, “inactive”. For LNFVVYMIGGFCCHHFNVLF the value was 1.3 ± 0.1; for IGKSRFKCMSVVRSRFT, “inactive”. Then KDYLWNILRIT, with “inactive”. In the case of WCDYMKNPCSFEGKFLWRWP, the amyloid nucleation score result was “inactive”.

For the substance HMPDFVCLFNHVMPWIWIRV, the amyloid nucleation score entry is “inactive”. Then VIMSRCPVHIDMVPRDAQPL, with “inactive”; and RTIYTLPSCEIEGDLWHLSG, with “inactive”; and FMHPADVEHGTREYLNVTGG, with “inactive”. As for MSLHCDHIAEGNELWGDVRR, the amyloid nucleation score entry is “inactive”. Then RTSMPTTHGGLVLQSWDYRP, with “inactive”. IDNMMYVV: the amyloid nucleation score entry was “inactive”. Then VNIGTIWETDKCMEIFCAAA, with “inactive”; and SLFIYGHYEHKHSGSLKFFA, with “inactive”. For YRFLMLITYYFCIV the value was 2.11 ± 0.071; for TDYLFLSKWVTLCLSVWCNY, -0.084 ± 0.3. In the case of YDLRCCTAVLFDLVESRATL, the amyloid nucleation score result was “inactive”.

Take NCVPSCSAAFKSISRQPHGS: the amyloid nucleation score was 0.115 ± 0.88.

Turning to YSGGKGSGRELRYTLLVRGT, the amyloid nucleation score entry is “inactive”.

For RYSGANVDNYVN, the amyloid nucleation score result was “inactive”. For NIIDKW the value was -0.357 ± 1.4; for TCCLIF, 1.87 ± 0.073; for GADDVTNRRTVVVSTQALCL, “inactive”.

For CSEGLYGVSTVICCIISSVN, the amyloid nucleation score came to 2.2 ± 0.077. EVSSTDL: the amyloid nucleation score entry is “inactive”.

Consider MRNTFRTHSKQYHHG, for which the amyloid nucleation score result was “inactive”. As for PCHPRGKRENTMRAWGRSCE, the amyloid nucleation score result is “inactive”.

On to FSFNQWDLLKMSIGCFKRCK, for which the amyloid nucleation score entry is “inactive”. Then VSSTALGGNNSICHLSPFYT, with “inactive”.

On to CYNQRGCTIGILQFLPRPVW, for which the amyloid nucleation score result is “inactive”. For LLLSDFVSLLESPRVLHAQW the value was “inactive”. Then SGGKWFIFRCT, with “inactive”.

Take TQRICRWLMVVWCDGRETHE: the amyloid nucleation score came to 0.403 ± 0.35. Then GKVNSWIGVRMKLLWSGRFG, with “inactive”.
